Source: paper PMC9482650, “Quantitative fragmentomics allow affinity mapping of interactomes” (Nature Communications, 2022)

T1: NHERF3_4, Q5T2W1
T1 sequence (Q5T2W1 373-468, limits assumed, looked up): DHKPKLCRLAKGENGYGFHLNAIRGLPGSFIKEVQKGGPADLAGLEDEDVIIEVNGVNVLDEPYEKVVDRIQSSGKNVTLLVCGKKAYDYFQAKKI

T2: MPDZ_12, O75970
T2 sequence (O75970 1857-1958, limits assumed, looked up): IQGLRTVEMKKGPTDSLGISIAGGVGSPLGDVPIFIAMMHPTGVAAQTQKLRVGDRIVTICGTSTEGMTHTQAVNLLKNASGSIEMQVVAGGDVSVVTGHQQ

T3: DLG3_2, Q92796
T3 sequence (Q92796 221-321, limits assumed, looked up): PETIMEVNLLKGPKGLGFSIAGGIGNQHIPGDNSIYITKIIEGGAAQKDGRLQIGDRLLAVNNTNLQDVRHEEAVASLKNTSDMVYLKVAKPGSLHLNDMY

T4: PARD3B_1, Q8TEW8
T4 sequence (Q8TEW8 196-299, limits assumed, looked up): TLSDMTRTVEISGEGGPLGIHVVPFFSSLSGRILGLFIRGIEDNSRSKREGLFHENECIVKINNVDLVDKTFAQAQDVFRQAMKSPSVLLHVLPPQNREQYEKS

T5: RHPN1, Q8TCX5
T5 sequence (Q8TCX5 508-602, limits assumed, looked up): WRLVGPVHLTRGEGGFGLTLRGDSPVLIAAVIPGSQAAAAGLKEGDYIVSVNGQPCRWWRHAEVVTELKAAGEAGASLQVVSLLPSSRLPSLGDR

T6: DVL3, Q92997
T6 sequence (Q92997 244-331, limits assumed, looked up): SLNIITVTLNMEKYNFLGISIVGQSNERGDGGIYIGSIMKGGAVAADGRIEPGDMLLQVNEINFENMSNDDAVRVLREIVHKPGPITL

T7: SNTG2, Q9NY99
T7 sequence (Q9NY99 68-166, limits assumed, looked up): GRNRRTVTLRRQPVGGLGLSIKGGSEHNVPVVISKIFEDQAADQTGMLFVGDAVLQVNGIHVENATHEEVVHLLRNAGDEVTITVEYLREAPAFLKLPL

T8: DLG3_1, Q92796
T8 sequence (Q92796 125-227, limits assumed, looked up): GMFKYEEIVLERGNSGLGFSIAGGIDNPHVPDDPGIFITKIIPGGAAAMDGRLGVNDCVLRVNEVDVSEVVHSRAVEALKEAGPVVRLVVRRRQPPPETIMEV

T9: APBA2_1, Q99767
T9 sequence (Q99767 563-664, limits assumed, looked up): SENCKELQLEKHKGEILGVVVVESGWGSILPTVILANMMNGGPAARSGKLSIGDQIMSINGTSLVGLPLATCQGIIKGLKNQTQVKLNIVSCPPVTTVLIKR

T10: SHANK1, Q9Y566
T10 sequence (Q9Y566 658-767, limits assumed, looked up): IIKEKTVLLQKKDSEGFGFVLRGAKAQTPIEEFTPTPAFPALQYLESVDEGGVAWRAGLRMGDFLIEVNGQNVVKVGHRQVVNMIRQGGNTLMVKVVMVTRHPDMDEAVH


What follows are binders tested against GRID2IP_2, A4D2P6 (assay: holdup assay). Details: plain residues with an end cap or a label only (N-terminal biotin on a linker: ado-ado).
Sequence of GRID2IP_2, A4D2P6 (A4D2P6 272-370): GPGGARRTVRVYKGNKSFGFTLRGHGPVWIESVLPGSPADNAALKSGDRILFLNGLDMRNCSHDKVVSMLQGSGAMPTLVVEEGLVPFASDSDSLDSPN
Set-up: key: below the threshold = too weak to quantify, mostly under pKd 3.1 to 4

| Binder | pKd |
| --- | --- |
| LTAQEQPVYI [APBA1, Q02410] | 3.81 |

These binders were tested against GRIP2_4, Q9C0E4 (assay: holdup assay). Details: plain residues with an end cap or a label only (N-terminal biotin on a linker: ado-ado).
Sequence of GRIP2_4, Q9C0E4 (Q9C0E4 446-548): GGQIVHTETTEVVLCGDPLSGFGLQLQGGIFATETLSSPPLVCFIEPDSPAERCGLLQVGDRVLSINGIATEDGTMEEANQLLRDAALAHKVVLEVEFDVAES
Set-up: key: below the threshold = too weak to quantify, mostly under pKd 3.1 to 4

| Binder | pKd |
| --- | --- |
| LTAQEQPVYI [APBA1, Q02410] | below the threshold |

Each binder was assayed against T1, NHERF3_4, Q5T2W1 (assay: holdup assay). Details: plain residues with an end cap or a label only (N-terminal biotin on a linker: ado-ado).
Set-up: key: below the threshold = too weak to quantify, mostly under pKd 3.1 to 4

| Binder | pKd |
| --- | --- |
| LTAQEQPVYI [APBA1, Q02410] | below the threshold |

The binders below were run against MAST1, Q9Y2H9 (assay: holdup assay). Details: plain residues with an end cap or a label only (N-terminal biotin on a linker: ado-ado).
Sequence of MAST1, Q9Y2H9 (Q9Y2H9 962-1065): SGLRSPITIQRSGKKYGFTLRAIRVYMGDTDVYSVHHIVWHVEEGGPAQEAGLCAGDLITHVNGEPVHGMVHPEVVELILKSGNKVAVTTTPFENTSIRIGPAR
Set-up: key: below the threshold = too weak to quantify, mostly under pKd 3.1 to 4

| Binder | pKd |
| --- | --- |
| LTAQEQPVYI [APBA1, Q02410] | 3.58 |

The binders below were run against T2, MPDZ_12, O75970 (assay: holdup assay). Details: plain residues with an end cap or a label only (N-terminal biotin on a linker: ado-ado).
Set-up: key: below the threshold = too weak to quantify, mostly under pKd 3.1 to 4

| Binder | pKd |
| --- | --- |
| LTAQEQPVYI [APBA1, Q02410] | below the threshold |

These binders were tested against FRMPD2_1, Q68DX3 (assay: holdup assay). Details: plain residues with an end cap or a label only (N-terminal biotin on a linker: ado-ado).
Sequence of FRMPD2_1, Q68DX3 (Q68DX3 770-861): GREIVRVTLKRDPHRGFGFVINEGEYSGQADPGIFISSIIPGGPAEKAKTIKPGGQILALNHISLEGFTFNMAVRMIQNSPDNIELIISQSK
Set-up: key: below the threshold = too weak to quantify, mostly under pKd 3.1 to 4

| Binder | pKd |
| --- | --- |
| LTAQEQPVYI [APBA1, Q02410] | below the threshold |

The binders below were run against GORASP2, Q9H8Y8 (assay: holdup assay). Details: plain residues with an end cap or a label only (N-terminal biotin on a linker: ado-ado).
Set-up: key: below the threshold = too weak to quantify, mostly under pKd 3.1 to 4

| Binder | pKd |
| --- | --- |
| LTAQEQPVYI [APBA1, Q02410] | 4.18 |

These binders were tested against T3, DLG3_2, Q92796 (assay: holdup assay). Details: plain residues with an end cap or a label only (N-terminal biotin on a linker: ado-ado).
Set-up: key: below the threshold = too weak to quantify, mostly under pKd 3.1 to 4

| Binder | pKd |
| --- | --- |
| LTAQEQPVYI [APBA1, Q02410] | 4.06 |

Each binder was assayed against T4, PARD3B_1, Q8TEW8 (assay: holdup assay). Details: plain residues with an end cap or a label only (N-terminal biotin on a linker: ado-ado).
Set-up: key: below the threshold = too weak to quantify, mostly under pKd 3.1 to 4

| Binder | pKd |
| --- | --- |
| LTAQEQPVYI [APBA1, Q02410] | 5 |

Each binder was assayed against T5, RHPN1, Q8TCX5 (assay: holdup assay). Details: plain residues with an end cap or a label only (N-terminal biotin on a linker: ado-ado).
Set-up: key: below the threshold = too weak to quantify, mostly under pKd 3.1 to 4

| Binder | pKd |
| --- | --- |
| LTAQEQPVYI [APBA1, Q02410] | below the threshold |

What follows are binders tested against LNX1_1, Q8TBB1 (assay: holdup assay). Details: plain residues with an end cap or a label only (N-terminal biotin on a linker: ado-ado).
Sequence of LNX1_1, Q8TBB1 (Q8TBB1 261-371): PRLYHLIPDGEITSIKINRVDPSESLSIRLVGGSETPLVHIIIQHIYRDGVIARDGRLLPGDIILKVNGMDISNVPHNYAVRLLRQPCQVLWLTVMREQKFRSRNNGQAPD
Set-up: key: below the threshold = too weak to quantify, mostly under pKd 3.1 to 4

| Binder | pKd |
| --- | --- |
| LTAQEQPVYI [APBA1, Q02410] | below the threshold |

Each binder was assayed against Inadl_8, Q8NI35 (assay: holdup assay). Details: plain residues with an end cap or a label only (N-terminal biotin on a linker: ado-ado).
Sequence of Inadl_8, Q8NI35 (Q8NI35 1425-1530): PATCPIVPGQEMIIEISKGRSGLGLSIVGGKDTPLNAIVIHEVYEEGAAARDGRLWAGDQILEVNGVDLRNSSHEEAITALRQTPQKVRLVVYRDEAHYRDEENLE
Set-up: key: below the threshold = too weak to quantify, mostly under pKd 3.1 to 4

| Binder | pKd |
| --- | --- |
| LTAQEQPVYI [APBA1, Q02410] | below the threshold |

These binders were tested against T6, DVL3, Q92997 (assay: holdup assay). Details: plain residues with an end cap or a label only (N-terminal biotin on a linker: ado-ado).
Set-up: key: below the threshold = too weak to quantify, mostly under pKd 3.1 to 4

| Binder | pKd |
| --- | --- |
| LTAQEQPVYI [APBA1, Q02410] | 3.87 |

What follows are binders tested against PARD3_3, Q8TEW0 (assay: holdup assay). Details: plain residues with an end cap or a label only (N-terminal biotin on a linker: ado-ado).
Sequence of PARD3_3, Q8TEW0 (Q8TEW0 582-685): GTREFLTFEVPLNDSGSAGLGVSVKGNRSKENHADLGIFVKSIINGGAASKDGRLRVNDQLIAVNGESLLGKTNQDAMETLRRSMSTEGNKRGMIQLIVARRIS
Set-up: key: below the threshold = too weak to quantify, mostly under pKd 3.1 to 4

| Binder | pKd |
| --- | --- |
| LTAQEQPVYI [APBA1, Q02410] | 4.82 |

The binders below were run against T7, SNTG2, Q9NY99 (assay: holdup assay). Details: plain residues with an end cap or a label only (N-terminal biotin on a linker: ado-ado).
Set-up: key: below the threshold = too weak to quantify, mostly under pKd 3.1 to 4

| Binder | pKd |
| --- | --- |
| LTAQEQPVYI [APBA1, Q02410] | below the threshold |

The binders below were run against LIMK2, P53671 (assay: holdup assay). Details: plain residues with an end cap or a label only (N-terminal biotin on a linker: ado-ado).
Sequence of LIMK2, P53671 (P53671 143-248): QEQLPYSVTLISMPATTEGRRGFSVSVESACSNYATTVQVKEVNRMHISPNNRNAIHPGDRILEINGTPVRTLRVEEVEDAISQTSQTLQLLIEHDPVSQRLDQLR
Set-up: key: below the threshold = too weak to quantify, mostly under pKd 3.1 to 4

| Binder | pKd |
| --- | --- |
| LTAQEQPVYI [APBA1, Q02410] | below the threshold |

The binders below were run against GOPC, Q9HD26 (assay: holdup assay). Details: plain residues with an end cap or a label only (N-terminal biotin on a linker: ado-ado).
Set-up: key: below the threshold = too weak to quantify, mostly under pKd 3.1 to 4

| Binder | pKd |
| --- | --- |
| LTAQEQPVYI [APBA1, Q02410] | below the threshold |

These binders were tested against TJP1_2, Q07157 (assay: holdup assay). Details: plain residues with an end cap or a label only (N-terminal biotin on a linker: ado-ado).
Sequence of TJP1_2, Q07157 (Q07157 181-274): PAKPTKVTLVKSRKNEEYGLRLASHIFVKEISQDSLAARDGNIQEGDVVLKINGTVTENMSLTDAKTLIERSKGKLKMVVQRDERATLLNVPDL
Set-up: key: below the threshold = too weak to quantify, mostly under pKd 3.1 to 4

| Binder | pKd |
| --- | --- |
| LTAQEQPVYI [APBA1, Q02410] | 3.55 |

The binders below were run against T8, DLG3_1, Q92796 (assay: holdup assay). Details: plain residues with an end cap or a label only (N-terminal biotin on a linker: ado-ado).
Set-up: key: below the threshold = too weak to quantify, mostly under pKd 3.1 to 4

| Binder | pKd |
| --- | --- |
| LTAQEQPVYI [APBA1, Q02410] | below the threshold |

Each binder was assayed against SCRIB_1, Q14160 (assay: holdup assay). Details: plain residues with an end cap or a label only (N-terminal biotin on a linker: ado-ado).
Sequence of SCRIB_1, Q14160 (Q14160 718-814): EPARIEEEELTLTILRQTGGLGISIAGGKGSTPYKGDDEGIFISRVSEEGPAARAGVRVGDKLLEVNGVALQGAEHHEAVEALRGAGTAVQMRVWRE
Set-up: key: below the threshold = too weak to quantify, mostly under pKd 3.1 to 4

| Binder | pKd |
| --- | --- |
| LTAQEQPVYI [APBA1, Q02410] | below the threshold |

Each binder was assayed against LNX1_2, Q8TBB1 (assay: holdup assay). Details: plain residues with an end cap or a label only (N-terminal biotin on a linker: ado-ado).
Sequence of LNX1_2, Q8TBB1 (Q8TBB1 371-470): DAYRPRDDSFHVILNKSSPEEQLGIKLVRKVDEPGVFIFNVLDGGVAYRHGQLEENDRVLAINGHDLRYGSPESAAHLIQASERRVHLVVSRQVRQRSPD
Set-up: key: below the threshold = too weak to quantify, mostly under pKd 3.1 to 4

| Binder | pKd |
| --- | --- |
| LTAQEQPVYI [APBA1, Q02410] | below the threshold |

These binders were tested against MAST2, Q6P0Q8 (assay: holdup assay). Details: plain residues with an end cap or a label only (N-terminal biotin on a linker: ado-ado).
Sequence of MAST2, Q6P0Q8 (Q6P0Q8 1099-1202): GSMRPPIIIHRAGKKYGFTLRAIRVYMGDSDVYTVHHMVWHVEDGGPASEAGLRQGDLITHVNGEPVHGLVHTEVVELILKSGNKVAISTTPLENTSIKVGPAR
Set-up: key: below the threshold = too weak to quantify, mostly under pKd 3.1 to 4

| Binder | pKd |
| --- | --- |
| LTAQEQPVYI [APBA1, Q02410] | below the threshold |

Each binder was assayed against T9, APBA2_1, Q99767 (assay: holdup assay). Details: plain residues with an end cap or a label only (N-terminal biotin on a linker: ado-ado).
Set-up: key: below the threshold = too weak to quantify, mostly under pKd 3.1 to 4

| Binder | pKd |
| --- | --- |
| LTAQEQPVYI [APBA1, Q02410] | below the threshold |

Each binder was assayed against Inadl_6, Q8NI35 (assay: holdup assay). Details: plain residues with an end cap or a label only (N-terminal biotin on a linker: ado-ado).
Sequence of Inadl_6, Q8NI35 (Q8NI35 1058-1167): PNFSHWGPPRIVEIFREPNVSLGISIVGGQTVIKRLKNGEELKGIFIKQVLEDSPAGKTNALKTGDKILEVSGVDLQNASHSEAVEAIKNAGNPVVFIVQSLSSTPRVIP
Set-up: key: below the threshold = too weak to quantify, mostly under pKd 3.1 to 4

| Binder | pKd |
| --- | --- |
| LTAQEQPVYI [APBA1, Q02410] | below the threshold |

Each binder was assayed against T10, SHANK1, Q9Y566 (assay: holdup assay). Details: plain residues with an end cap or a label only (N-terminal biotin on a linker: ado-ado).
Set-up: key: below the threshold = too weak to quantify, mostly under pKd 3.1 to 4

| Binder | pKd |
| --- | --- |
| LTAQEQPVYI [APBA1, Q02410] | below the threshold |

Each binder was assayed against SCRIB_2, Q14160 (assay: holdup assay). Details: plain residues with an end cap or a label only (N-terminal biotin on a linker: ado-ado).
Sequence of SCRIB_2, Q14160 (Q14160 857-960): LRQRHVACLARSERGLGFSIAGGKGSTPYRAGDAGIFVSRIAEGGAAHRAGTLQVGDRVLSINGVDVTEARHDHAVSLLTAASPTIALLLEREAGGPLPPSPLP
Set-up: key: below the threshold = too weak to quantify, mostly under pKd 3.1 to 4

| Binder | pKd |
| --- | --- |
| LTAQEQPVYI [APBA1, Q02410] | below the threshold |

What follows are binders tested against IL16_3, Q14005 (assay: holdup assay). Details: plain residues with an end cap or a label only (N-terminal biotin on a linker: ado-ado).
Sequence of IL16_3, Q14005 (Q14005 1107-1207): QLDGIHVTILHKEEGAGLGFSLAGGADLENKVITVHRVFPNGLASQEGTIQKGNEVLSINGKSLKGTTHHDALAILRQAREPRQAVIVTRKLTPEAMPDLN
Set-up: key: below the threshold = too weak to quantify, mostly under pKd 3.1 to 4

| Binder | pKd |
| --- | --- |
| LTAQEQPVYI [APBA1, Q02410] | below the threshold |
